Data: publication PMC9270183 (The Journal of Experimental Medicine, 2022)
Changes are numbered by the printed parent chain.

B1: V025 (antibody, V domains shown)
VH: QVQLVQSGAEVKKPGASVKVSCKASGYTFTSYGISWVRQAPGQGLEWMGWISVYNGKTNYAQKLQGRVTMTTDTSTSTAYMELRSLISDDTAVYYCARADRYNWDYGSSWGQGTLVTVSS
VL: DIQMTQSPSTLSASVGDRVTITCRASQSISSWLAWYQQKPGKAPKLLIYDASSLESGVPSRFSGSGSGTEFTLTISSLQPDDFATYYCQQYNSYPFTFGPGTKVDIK
notes: IgG; donor BRA13; source: recombinant monoclonal IgG, produced and purified as previously described
B2: V011 (antibody, V domains shown)
VH: QVQLVQSGAEVKKPGASVKVSCKASGYIFTSYDINWVRQATGQGLEWMGWMNPNSGNTGYAQKFQGRVTMTRNTSISTAYMELSSLRSEDTAVYYCARASSSLTYYFDYWGQGTLVTVSS
VL: SYELTQPPSVSVAPGKTARITCGENNIGSKSVHWYQQKPGQAPVLVVYDDSDRPSGIPERFSGSNSGNTATLTISRVEAGDEADYYCQVWDSSSDPVVFGGGTKLTVL
notes: as for B1
B3: V002 (antibody, V domains shown)
VH: EVQLVESGGGLVQPGRSLRLSCAASGFTFDEYAMHWVRQAPGKGLEWVSGSSWNSGTIGYADSVKGRFTISRDNAKNSLYLQMNSLRAEDTALYYCAKSQGDYGGNSGAGYFQHWGQGTLVTVSS
VL: B2 VL with E24G, V44M, D95E, P96V, V97Y, G101T, L105V
notes: as for B1
B4: V065 (antibody, V domains shown)
VH: QVQLVQSGAEVKKPGASVKVSCKASGYTFTSYGISWVRQAPGQGLEWMGWINTDNGNTKNAQKVQGRVTMTTDTSTSTAYMELRSLRSDDTAVYYCARGGTVGAPPIEYWGQGTLVTVSS
VL: QSALTQPASVSGSPGQSITFSCTGTSSDVGGYNYVSWYQQYPGKAPKLLIYDVTNRPSGVSDRFSGSKSGNTASLTIFGLQAEDEADYYCSSFTSSNTRVFGTGTKVTVL
notes: IgG; donor BRA15
B5: V022 (antibody, V domains shown)
VH: EVQLVESGGGLVKPGGSLRLSCAASGFTFSSYSMNWVRQAPGKGLEWVSSISSTNNYIYNADSVKGRFTISRDNAKNSLYLQMNSLRAEDTAVYYCARDPAGRYSYGLYYFYYMDVWGKGTTVTVSS
VL: QSALTQPASVSGSPGQSITISCTGTSSDVGGYNYVSWYQQRPGKAPKLMIYDVSNRPSGVSDRFSGSKSGNTASLTISGLQAEDEADYYCTSYTSSSSLYVFGTGTKVTVL
notes: as for B1
B6: V014 (antibody, V domains shown)
VH: EVQLVESGGGLVQPGGSLRLSCAASGFTFSSYDMHWVRQATGKGLEWVSAIGTAGDTYYPGSVKGRFTISRENAKNSLYLQMNSLRAGDTAVYYCARGVITMVRGVIRDYYYYGMDVWGQGTTVTVSS
VL: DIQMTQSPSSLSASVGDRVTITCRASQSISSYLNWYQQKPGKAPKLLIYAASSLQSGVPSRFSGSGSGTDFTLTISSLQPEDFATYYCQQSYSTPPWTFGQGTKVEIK
notes: as for B1
B7: V020 (antibody, V domains shown)
VH: QVQLVESGGGVVQPGRSLRLSCAASGFTFSSYGMHWVRQAPGKGLEWVAVISYDGSNKYYADSVKGRFTISRDNSKNTLYLQMNSLRAEDTAVYYCAKGGWFGELLRYFDYWGQGTLVTVSS
VL: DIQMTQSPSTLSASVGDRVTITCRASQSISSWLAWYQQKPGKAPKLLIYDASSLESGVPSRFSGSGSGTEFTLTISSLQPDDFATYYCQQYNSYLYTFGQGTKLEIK
notes: as for B1
B8: V026 (antibody, V domains shown)
VH: B7 VH with A24V, D54E, F102Y, E104S, L105P, L106T, R107Y
VL: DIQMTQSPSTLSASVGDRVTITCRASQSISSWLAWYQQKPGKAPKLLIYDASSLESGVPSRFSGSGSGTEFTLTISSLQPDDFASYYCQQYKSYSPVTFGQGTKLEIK
notes: as for B1
B9: V017 (antibody, V domains shown)
VH: EVQLVESGGGLVQPGGSLRLSCVASGFTFSTYSMNWVRQAPGKGLEWVSYISSSSSTIYYADSVKGRFTISRDNAKSSLYLQMNSLRAEDTAVYYCASGLCGGDCPLTCWGQGTLVTVSS
VL: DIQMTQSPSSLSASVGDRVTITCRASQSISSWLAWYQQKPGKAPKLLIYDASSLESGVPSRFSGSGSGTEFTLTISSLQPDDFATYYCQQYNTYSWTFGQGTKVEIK
notes: as for B1
B10: V003 (antibody, V domains shown)
VH: EVQLVQSGAEVKKPGESLKISCLGSGYSFTSYWIGWVRQMPGKGLEWMGIIFPADSDTRYSPSFQGQVIISADKSISTAYLQWSSLKASDTAMYYCARLREFGDYYYYGMDVWGQGTTVTVSS
VL: DIQLTQSPSSLSASVGDRVTITCRASQGISSYLAWYQQKPGKAPKLLIYAASTLQSGVPSRFSGSGSGTDFTLTISSLQPEDFATYYCQQLNSYPDFGQGTKLEIK
notes: as for B1
B11: V064 (antibody, V domains shown)
VH: EVQLVESGGGLVQPGGSLRLSCAASGLTVSRNYMRWVRQAPGKGLEWVSLIYSGGSTFYGDSVKGRFTISRDNSKNTLYLQMNSLRAEDTAVYYCARDLVRDGMDVWGQGTTVTVSS
VL: EIVMTQSPATLSVSPGERATLSCRASQSVSSNLAWYQQKPGQAPRLLIYGASTRATGIPARFSGSGSGTEFTLTISSLQSEDFAVYYCQQYNNWTFGQGTKVEIK
notes: IgG; donor BRA15; source: recombinant monoclonal IgG, produced and purified as previously described
B12: V013 (antibody, V domains shown)
VH: QVQLVESGGGVVQPGRSLRLSCAGSGFIFSSFAMHWVRQAPGKGLEWVAVVSYDGDNKYYADSVKGRFTISRDNSKNTLYLQMDSLRPEDTAVYFCGRDEAALWIQRWYREIDFWGQGTLVTVSS
VL: QSVLTQPPSVSGTPGQRVTISCSGSSSNTGRNPVTWYQQFPGSAPKLLISRNNQRPSGVPDRFSGSKSGTSASLAISGLQSEDEADYYCAAWDDNLNGQVFGGGTKVTVL
notes: as for B1
B13: V009 (antibody, V domains shown)
VH: EVQLVQSGAEVKKPGESLKISCKGSGYRFTSYWIGWVRQMPGKGLEWMGIIYAGDSDTRYSPSFQGQVTISVDKSISTAYLQWSSLKASDTAMYYCATTMTTGYFDYWGQGTLVTVSS
VL: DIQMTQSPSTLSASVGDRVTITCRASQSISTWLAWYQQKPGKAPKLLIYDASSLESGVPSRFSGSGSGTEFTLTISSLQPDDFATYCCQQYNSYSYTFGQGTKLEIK
notes: as for B1
B14: V016 (antibody, V domains shown)
VH: QVQLVESGGGVVQPGRSLRLSCAASGFTFSNYGMHWVRQAPGKGLEWVAVISYDGSNKYYADSVKGRFTISRDNSKNTLYLQMNSVRVEDTAVYYCAKGSFGYSYVHTYFDYWGQGTLVTVSS
VL: DIQMTQSPSTLSASVGDRVTITCRASQSISSWLAWYQQKPGKAPKLLIYDASSLESGVPSRFSGSGSGTEFILTISSLQPDDFATYYCQQYNSPMYTFGQGTKLEIK
notes: as for B1
B15: V028 (antibody, V domains shown)
VH: QVQLVESGGGVVQPGRSLRLSCAASGFTFSSYGMHWVRQAPGKGLEWVAVVSFDGSDKYYADSVKGRFTISRDNSKNTLYLQMNSLRAEDTALYYCAKGGYSYAYPRYYFDYWGQGTLVTVSS
VL: DIQMTQSPSSLSASVGDRVTITCQASQDISNYLNWYQQKPGKAPKLLIYDASNLETGVPSRFSGSGSGTDFTFTISSLQPEDIATYYCQQHDNLPITFGQGTRLEIK
notes: IgG; donor BRA14; source: recombinant monoclonal IgG, produced and purified as previously described
B16: V031 (antibody, V domains shown)
VH: B15 VH with V51I, F53Y, D57N, T69A, I70F, L93V
VL: B15 VL
notes: as for B15
B17: V047 (antibody, V domains shown)
VH: EVQLVESGGGLVQPGGSLRLSCAASGFTFSSYWMSWVRQAPGKGLEWVANIKQDGSEKYYVDSVKGRFTISRDNAKNSLYLQVNSLRAEDTAVYYCARGQSRQYSSSWYGPAPVVDYFDYWGQGTLVTVSS
VL: QSVLTQPPSASGTPGQRVTISCSGSSSNFGSNYVYWYQQLPGTAPKLLIYRNKQRPSGVPDRFSGSKSGTSASLAISGLRSEDEADYYCAAWDDSLSVLWVFGGGTKLTVL
notes: IgG; donor BRA15
B18: V052 (antibody, V domains shown)
VH: EVQLVESGGGLVQPGGSLRLSCAASGFTVSSKYMNWVRQAPGKGLEWVSVIYIGGSTDYADSVKGRFTISRDNSKNTLYLQMNSLRVEDTAVYYCARDGWDYELVFWGQGTLVTVSS
VL: DIQMTQSPSSLSASVGDRVTITCRASQGIRNDLGWYQQKPGKAPKRLIYAASSLQSGVPSRFSGSGSGTEFTLTISSLQPEDFATYYCLQHNSYPRWTFGQGTKVEIK
notes: IgG; donor BRA15
B19: V019 (antibody, V domains shown)
VH: QVQLVQSGAEVKKPGSSVKVSCKASGGTFSTYTFSWVRQAPGQGLEWMGRIIPILGIANYAQKFQGRITITADKSTSTAYMELSSLRSEDTAVYYCAWGSYSYGYFVDIWGQGTMVTVSS
VL: DIVMTQTLLSLSVTPGQPASISCKSSQSLLHSDGKTYLYWYLQKPGQSPQLLIYEVSSRFSGVPDRFSGSGSGTDFTLKISRVEAEDVGVYYCMQGIQFHWTFGQGTKLEIK
notes: as for B1
B20: V010 (antibody, V domains shown)
VH: QVQLQESGPGLVKPSETLSLTCTVSGGSISSYYWSWIRQPPGKGLEWIGYIYYNGSTNYNPSLKSRVTISLDTSKNQFSLKLSSVTAADTAVYYCASDYYDSSGYYYGFDYWGQGTLVTVSS
VL: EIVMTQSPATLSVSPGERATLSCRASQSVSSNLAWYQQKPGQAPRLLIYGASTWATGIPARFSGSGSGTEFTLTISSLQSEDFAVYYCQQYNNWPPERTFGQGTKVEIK
notes: as for B1
B21: V015 (antibody, V domains shown)
VH: EVQLVESGGGLVQPGGSLRLSCAASGFTFNSYWMSWVRQAPGKGLEWVANIKQDGSEKYYVDSVKGRFTISRDNAKNSLYLQMNSLRAEDTAVYYCARLPTYYSGFDYWGQGTLVTVSS
VL: NFMLTQPHSVSESPGKTVTISCTGSSGSIASNYVQWYQQRPGSAPTTVIYEDNQRPSGVPDRFSGSIDSSSNSASLTISGLKTEDEADYYCQSYDSTNRGVVFGGGTKLTVL
notes: as for B1
B22: V021 (antibody, V domains shown)
VH: QVQLQESGPGLVKPSQTLSLTCTVSGGSISSGSYYWSWIRQPVGKGLEWIGRIYTSGSTNYNPSLKSRVTISVDTSKNQFSLELSSVTAADRAVYYCARESSPASIPVRGVIWWFDPWGQGTLVTVSS
VL: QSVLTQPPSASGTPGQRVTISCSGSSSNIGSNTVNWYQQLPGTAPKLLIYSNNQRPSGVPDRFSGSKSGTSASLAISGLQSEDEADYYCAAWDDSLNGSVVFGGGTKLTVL
notes: IgG; donor BRA13

target: T1, SARS-CoV-2 Wuhan-Hu-1 RBD (SARS-CoV-2 Wuhan-Hu-1, UniProt P0DTC2); assay: BLI; settings: both partners purified

Binder | Kd | binding result
B1 | 1.93 nM | –
B2 | 7.46 nM | –
B3 | 1170 nM | –
B4 | – | no binding (tested: 100 µg/ml RBD)
B5 | 13 nM | –
B6 | 15.1 nM | –
B7 | 77.3 nM | –
B8 | 10.7 nM | –
B9 | 18.4 nM | –
B10 | 2980 nM | –
B11 | 2.76 nM | –
B12 | 128 nM | –
B13 | 3.22 nM | –
B14 | 5.84 nM | –
B15 | 19.8 nM | –
B16 | 9.39 nM | –
B17 | – | no binding (tested: 100 µg/ml RBD)
B18 | – | no binding (tested: 100 µg/ml RBD)
B19 | 3.84 nM | –
B20 | 2.08 nM | –
B21 | 15.8 nM | –

target: T1, SARS-CoV-2 Wuhan-Hu-1 RBD; assay: ELISA; settings: both partners purified

Binder | binding result
B22 | no binding
